Measured values from US20090030181A1 (KOREA RESEARCH INSTITUTE OF BIOSCIENCE AND BIOTECHNOLOGY, published 2009).
Where no end group is shown, it is not given here.

Molecular target: T1, human mdm2 N-terminal domain, mdm2(3-109) (human, UniProt Q00987 3-109)
T1 construct: Expressed in E. coli BL21(DE3) from a pLM1 vector; Uniformly 15N-labelled (or 15N,13C-labelled) where it is the observed species in NMR; unlabelled when used as titrant and when immobilised on the CM5 chip
Assay: SPR (BIAcore 2000), mdm2(3-109) amine-coupled on CM5, peptide injected at 1.5625-50 µM, equilibrium fit

T1 sequence (Q00987 3-109 limits assumed): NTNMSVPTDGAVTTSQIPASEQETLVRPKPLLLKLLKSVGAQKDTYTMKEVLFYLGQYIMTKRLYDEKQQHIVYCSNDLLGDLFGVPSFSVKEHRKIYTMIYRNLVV

B1: native p53 TAD(49-54) peptide (peptide)
peptide: DIEQWF-NH2
notes: Synthetic, solid phase; also called p53 (49-54); p53(49-54) peptide
In the case of B1, the Kd is reported as 25 µM.
